Data reported in PMC10786891, “Massively parallel profiling of RNA-targeting CRISPR-Cas13d”.

T1: EsCas13d, nuclease-dead (Eubacterium siraeum, UniProt B0MS50, R295A;H300A;R849A;H854A)
T1 sequence: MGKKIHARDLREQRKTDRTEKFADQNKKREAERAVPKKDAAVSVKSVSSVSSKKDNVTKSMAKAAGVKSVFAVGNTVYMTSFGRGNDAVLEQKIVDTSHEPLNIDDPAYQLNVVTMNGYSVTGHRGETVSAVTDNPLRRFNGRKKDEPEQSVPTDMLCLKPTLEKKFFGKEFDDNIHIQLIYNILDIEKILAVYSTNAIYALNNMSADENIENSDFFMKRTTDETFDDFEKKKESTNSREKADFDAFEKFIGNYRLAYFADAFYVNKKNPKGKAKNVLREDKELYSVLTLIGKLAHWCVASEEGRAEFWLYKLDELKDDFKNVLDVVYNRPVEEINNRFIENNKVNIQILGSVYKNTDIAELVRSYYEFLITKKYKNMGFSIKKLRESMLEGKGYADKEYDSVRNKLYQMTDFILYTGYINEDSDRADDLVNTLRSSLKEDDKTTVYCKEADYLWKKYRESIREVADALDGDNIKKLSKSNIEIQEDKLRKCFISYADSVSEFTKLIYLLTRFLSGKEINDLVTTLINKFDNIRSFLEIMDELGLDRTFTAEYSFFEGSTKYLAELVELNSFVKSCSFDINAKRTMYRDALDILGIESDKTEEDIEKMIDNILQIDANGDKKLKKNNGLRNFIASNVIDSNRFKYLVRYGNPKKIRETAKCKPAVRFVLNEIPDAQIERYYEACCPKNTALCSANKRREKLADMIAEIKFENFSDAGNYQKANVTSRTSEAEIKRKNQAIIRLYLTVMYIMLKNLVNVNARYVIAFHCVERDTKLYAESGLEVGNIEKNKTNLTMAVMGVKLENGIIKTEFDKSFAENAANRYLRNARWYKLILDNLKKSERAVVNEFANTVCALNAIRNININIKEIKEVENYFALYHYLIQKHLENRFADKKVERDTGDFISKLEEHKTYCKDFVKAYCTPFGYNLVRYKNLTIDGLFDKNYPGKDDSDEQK

B1: target 1 MT 5'PFS CUC 3'PFS ACG (mixed)
RNA 1: CACCCGUGCAAAAAUGCAGGGGUCUAAAACUGAGCGGAUAACCUCUCUAUGG
RNA 2: GGGAAUGGAUCCACAUCUACGAAUUCCUCCCAUAGAGAGGUUAUCCGCUCAACGAGAUCGGAAGAGCACACGU
B2: target 1 MT 5'PFS AAC 3'PFS ACU (mixed)
RNA 1: CACCCGUGCAAAAAUGCAGGGGUCUAAAACUGAGCGGAUAACCUCUCUAUGG
RNA 2: GGGAAUGGAUCCACAUCUACGAAUUCAACCCAUAGAGAGGUUAUCCGCUCAACUAGAUCGGAAGAGCACACGU
B3: target 1 MT 5'PFS ACC 3'PFS CAG (mixed)
RNA 1: CACCCGUGCAAAAAUGCAGGGGUCUAAAACUGAGCGGAUAACCUCUCUAUGG
RNA 2: GGGAAUGGAUCCACAUCUACGAAUUCACCCCAUAGAGAGGUUAUCCGCUCACAGAGAUCGGAAGAGCACACGU
B4: target 1 MT 5'PFS GUU 3'PFS CAA (mixed)
RNA 1: CACCCGUGCAAAAAUGCAGGGGUCUAAAACUGAGCGGAUAACCUCUCUAUGG
RNA 2: GGGAAUGGAUCCACAUCUACGAAUUCGUUCCAUAGAGAGGUUAUCCGCUCACAAAGAUCGGAAGAGCACACGU
B5: target 1 MT 5'PFS GGG 3'PFS CGG (mixed)
RNA 1: CACCCGUGCAAAAAUGCAGGGGUCUAAAACUGAGCGGAUAACCUCUCUAUGG
RNA 2: GGGAAUGGAUCCACAUCUACGAAUUCGGGCCAUAGAGAGGUUAUCCGCUCACGGAGAUCGGAAGAGCACACGU
B6: target 1 MT 5'PFS UGU 3'PFS CUU (mixed)
RNA 1: CACCCGUGCAAAAAUGCAGGGGUCUAAAACUGAGCGGAUAACCUCUCUAUGG
RNA 2: GGGAAUGGAUCCACAUCUACGAAUUCUGUCCAUAGAGAGGUUAUCCGCUCACUUAGAUCGGAAGAGCACACGU
B7: target 1 MT 5'PFS GUU 3'PFS CAC (mixed)
RNA 1: CACCCGUGCAAAAAUGCAGGGGUCUAAAACUGAGCGGAUAACCUCUCUAUGG
RNA 2: GGGAAUGGAUCCACAUCUACGAAUUCGUUCCAUAGAGAGGUUAUCCGCUCACACAGAUCGGAAGAGCACACGU
B8: target 1 del8,del22 (mixed)
RNA 1: CACCCGUGCAAAAAUGCAGGGGUCUAAAACUGAGCGGAUAACCUCUCUAUGG
RNA 2: GGGAAUGGAUCCACAUCUACGAAUUCGUACAUAGAGAGGUUACCGCUCACCGAGAUCGGAAGAGCACACGU
B9: target 1 MT 5'PFS CCA 3'PFS CAC (mixed)
RNA 1: CACCCGUGCAAAAAUGCAGGGGUCUAAAACUGAGCGGAUAACCUCUCUAUGG
RNA 2: GGGAAUGGAUCCACAUCUACGAAUUCCCACCAUAGAGAGGUUAUCCGCUCACACAGAUCGGAAGAGCACACGU
B10: target 1 MT 5'PFS GAC 3'PFS UCA (mixed)
RNA 1: CACCCGUGCAAAAAUGCAGGGGUCUAAAACUGAGCGGAUAACCUCUCUAUGG
RNA 2: GGGAAUGGAUCCACAUCUACGAAUUCGACCCAUAGAGAGGUUAUCCGCUCAUCAAGAUCGGAAGAGCACACGU
B11: target 1 MT 5'PFS UGU 3'PFS CUA (mixed)
RNA 1: CACCCGUGCAAAAAUGCAGGGGUCUAAAACUGAGCGGAUAACCUCUCUAUGG
RNA 2: GGGAAUGGAUCCACAUCUACGAAUUCUGUCCAUAGAGAGGUUAUCCGCUCACUAAGAUCGGAAGAGCACACGU
B12: target 1 insC 3' of 19,insG 3' of 9 (mixed)
RNA 1: CACCCGUGCAAAAAUGCAGGGGUCUAAAACUGAGCGGAUAACCUCUCUAUGG
RNA 2: GGGAAUGGAUCCACAUCUACGAAUUCGUACCAUCAGAGAGGUUAGUCCGCUCACCGAGAUCGGAAGAGCACACGU
B13: target 1 MT 5'PFS AAC 3'PFS ACA (mixed)
RNA 1: CACCCGUGCAAAAAUGCAGGGGUCUAAAACUGAGCGGAUAACCUCUCUAUGG
RNA 2: GGGAAUGGAUCCACAUCUACGAAUUCAACCCAUAGAGAGGUUAUCCGCUCAACAAGAUCGGAAGAGCACACGU
B14: target 1 MT 5'PFS GAC 3'PFS UCG (mixed)
RNA 1: CACCCGUGCAAAAAUGCAGGGGUCUAAAACUGAGCGGAUAACCUCUCUAUGG
RNA 2: GGGAAUGGAUCCACAUCUACGAAUUCGACCCAUAGAGAGGUUAUCCGCUCAUCGAGAUCGGAAGAGCACACGU
B15: target 1 MT 5'PFS UAA 3'PFS ACU (mixed)
RNA 1: CACCCGUGCAAAAAUGCAGGGGUCUAAAACUGAGCGGAUAACCUCUCUAUGG
RNA 2: GGGAAUGGAUCCACAUCUACGAAUUCUAACCAUAGAGAGGUUAUCCGCUCAACUAGAUCGGAAGAGCACACGU
B16: target 1 MT 5'PFS GAC 3'PFS UCU (mixed)
RNA 1: CACCCGUGCAAAAAUGCAGGGGUCUAAAACUGAGCGGAUAACCUCUCUAUGG
RNA 2: GGGAAUGGAUCCACAUCUACGAAUUCGACCCAUAGAGAGGUUAUCCGCUCAUCUAGAUCGGAAGAGCACACGU
B17: target 1 MT 5'PFS UAA 3'PFS ACA (mixed)
RNA 1: CACCCGUGCAAAAAUGCAGGGGUCUAAAACUGAGCGGAUAACCUCUCUAUGG
RNA 2: GGGAAUGGAUCCACAUCUACGAAUUCUAACCAUAGAGAGGUUAUCCGCUCAACAAGAUCGGAAGAGCACACGU
B18: target 1 MT 5'PFS UUA 3'PFS AGU (mixed)
RNA 1: CACCCGUGCAAAAAUGCAGGGGUCUAAAACUGAGCGGAUAACCUCUCUAUGG
RNA 2: GGGAAUGGAUCCACAUCUACGAAUUCUUACCAUAGAGAGGUUAUCCGCUCAAGUAGAUCGGAAGAGCACACGU
B19: target 1 MT 5'PFS CCA 3'PFS CAU (mixed)
RNA 1: CACCCGUGCAAAAAUGCAGGGGUCUAAAACUGAGCGGAUAACCUCUCUAUGG
RNA 2: GGGAAUGGAUCCACAUCUACGAAUUCCCACCAUAGAGAGGUUAUCCGCUCACAUAGAUCGGAAGAGCACACGU
B20: target 1 MT 5'PFS GAC 3'PFS UCC (mixed)
RNA 1: CACCCGUGCAAAAAUGCAGGGGUCUAAAACUGAGCGGAUAACCUCUCUAUGG
RNA 2: GGGAAUGGAUCCACAUCUACGAAUUCGACCCAUAGAGAGGUUAUCCGCUCAUCCAGAUCGGAAGAGCACACGU
B21: target 1 MT 5'PFS CAA 3'PFS AUA (mixed)
RNA 1: CACCCGUGCAAAAAUGCAGGGGUCUAAAACUGAGCGGAUAACCUCUCUAUGG
RNA 2: GGGAAUGGAUCCACAUCUACGAAUUCCAACCAUAGAGAGGUUAUCCGCUCAAUAAGAUCGGAAGAGCACACGU
B22: target 1 MT 5'PFS CCA 3'PFS CAG (mixed)
RNA 1: CACCCGUGCAAAAAUGCAGGGGUCUAAAACUGAGCGGAUAACCUCUCUAUGG
RNA 2: GGGAAUGGAUCCACAUCUACGAAUUCCCACCAUAGAGAGGUUAUCCGCUCACAGAGAUCGGAAGAGCACACGU
B23: target 1 MT 5'PFS GGG 3'PFS CGC (mixed)
RNA 1: CACCCGUGCAAAAAUGCAGGGGUCUAAAACUGAGCGGAUAACCUCUCUAUGG
RNA 2: GGGAAUGGAUCCACAUCUACGAAUUCGGGCCAUAGAGAGGUUAUCCGCUCACGCAGAUCGGAAGAGCACACGU
B24: target 1 MT 5'PFS CAA 3'PFS AUC (mixed)
RNA 1: CACCCGUGCAAAAAUGCAGGGGUCUAAAACUGAGCGGAUAACCUCUCUAUGG
RNA 2: GGGAAUGGAUCCACAUCUACGAAUUCCAACCAUAGAGAGGUUAUCCGCUCAAUCAGAUCGGAAGAGCACACGU
B25: target 1 insA 3' of 4,insU 3' of 4 (mixed)
RNA 1: CACCCGUGCAAAAAUGCAGGGGUCUAAAACUGAGCGGAUAACCUCUCUAUGG
RNA 2: GGGAAUGGAUCCACAUCUACGAAUUCGUACCAUAGAGAGGUUAUCCGCAUUCACCGAGAUCGGAAGAGCACACGU
B26: target 1 MT 5'PFS GAC 3'PFS AAA (mixed)
RNA 1: CACCCGUGCAAAAAUGCAGGGGUCUAAAACUGAGCGGAUAACCUCUCUAUGG
RNA 2: GGGAAUGGAUCCACAUCUACGAAUUCGACCCAUAGAGAGGUUAUCCGCUCAAAAAGAUCGGAAGAGCACACGU
B27: target 1 MT 5'PFS AAC 3'PFS ACC (mixed)
RNA 1: CACCCGUGCAAAAAUGCAGGGGUCUAAAACUGAGCGGAUAACCUCUCUAUGG
RNA 2: GGGAAUGGAUCCACAUCUACGAAUUCAACCCAUAGAGAGGUUAUCCGCUCAACCAGAUCGGAAGAGCACACGU
B28: target 1 MT 5'PFS UAA 3'PFS ACG (mixed)
RNA 1: CACCCGUGCAAAAAUGCAGGGGUCUAAAACUGAGCGGAUAACCUCUCUAUGG
RNA 2: GGGAAUGGAUCCACAUCUACGAAUUCUAACCAUAGAGAGGUUAUCCGCUCAACGAGAUCGGAAGAGCACACGU

The binders below were run against T1, EsCas13d, nuclease-dead (assay: crRNA (strand 1, pre-loaded); Mg2+; 40 mM Tris-HCl pH 7.5, 150 mM NaCl, 6 mM MgCl2, 1 mM DTT, 0.1% Tween-20, 0.2 mg/ml BSA; 25 C; 10 min per concentration, then washed). Details: tags: His6-TwinStrep-SUMO cleaved; N-terminal SNAP kept (SNAP-Surface 488); label: 3' end held by stalled T7 RNA polymerase.

Going from B1 to B2, the Kd falls from 72 ± 33 nM to 21 ± 7 nM (3.4-fold). The second binds more tightly here.

B3 and B4 are within error of each other in Kd: roughly 36 nM for the first, 56.5 ± 22.5 nM for the second.

B5 and B6 are within error of each other in Kd: 37.5 ± 8 nM for the first, 28.9 ± 7.65 nM for the second.

B7 and B8 are within error of each other in Kd: 22.5 ± 9 nM for the first, 32.9 ± 1.7 nM for the second.

Compared with B9, B10 is 1.7-fold higher in Kd: roughly 9.5 nM for the first, 16.6 ± 3.5 nM for the second.

B11 and B12 are within error of each other in Kd: 49 ± 19 nM for the first, 44 ± 5 nM for the second.

Compared with B13, B14 is 6.1-fold lower in Kd: 80 ± 34.5 nM for the first, 13.2 ± 1.9 nM for the second. The second binds more tightly here.

First: B15
Second: B16
The Kd of the first is 2.3-fold higher: 29 ± 7 nM for the first, 12.8 ± 4.8 nM for the second.

B17 and B18 are within error of each other in Kd: 43.5 ± 17.5 nM for the first, 74.5 ± 29 nM for the second.

Compared with B19, B20 is 3.5-fold higher in Kd: 6.55 ± 2.8 nM for the first, 23 ± 9.3 nM for the second. The first binds more tightly here.

Going from B21 to B22, the Kd falls from 17.5 ± 7.5 nM to 4.25 ± 1.3 nM (4.1-fold). The second binds more tightly here.

First: B23
Second: B24
The Kd of the first is 2-fold higher: 64 ± 30 nM for the first, roughly 32.5 nM for the second.

Compared with B25, B26 is 4.1-fold higher in Kd: 12.4 ± 1.6 nM for the first, roughly 51 nM for the second. The first binds more tightly here.

Compared with B27, B28 is 1.7-fold lower in Kd: roughly 43 nM for the first, 25 ± 4.5 nM for the second. The second binds more tightly here.
